According to patent US20220290132:

Target: SpCas9 nuclease (Streptococcus pyogenes) (UniProt Q99ZW2)
Assay: EMSA
Settings: 30 nM Cas9, 30 nM RNA, NEBuffer 3.1, 25 C then 37 C; negative control

Chain of UniProt Q99ZW2 (Q99ZW2 whole entry): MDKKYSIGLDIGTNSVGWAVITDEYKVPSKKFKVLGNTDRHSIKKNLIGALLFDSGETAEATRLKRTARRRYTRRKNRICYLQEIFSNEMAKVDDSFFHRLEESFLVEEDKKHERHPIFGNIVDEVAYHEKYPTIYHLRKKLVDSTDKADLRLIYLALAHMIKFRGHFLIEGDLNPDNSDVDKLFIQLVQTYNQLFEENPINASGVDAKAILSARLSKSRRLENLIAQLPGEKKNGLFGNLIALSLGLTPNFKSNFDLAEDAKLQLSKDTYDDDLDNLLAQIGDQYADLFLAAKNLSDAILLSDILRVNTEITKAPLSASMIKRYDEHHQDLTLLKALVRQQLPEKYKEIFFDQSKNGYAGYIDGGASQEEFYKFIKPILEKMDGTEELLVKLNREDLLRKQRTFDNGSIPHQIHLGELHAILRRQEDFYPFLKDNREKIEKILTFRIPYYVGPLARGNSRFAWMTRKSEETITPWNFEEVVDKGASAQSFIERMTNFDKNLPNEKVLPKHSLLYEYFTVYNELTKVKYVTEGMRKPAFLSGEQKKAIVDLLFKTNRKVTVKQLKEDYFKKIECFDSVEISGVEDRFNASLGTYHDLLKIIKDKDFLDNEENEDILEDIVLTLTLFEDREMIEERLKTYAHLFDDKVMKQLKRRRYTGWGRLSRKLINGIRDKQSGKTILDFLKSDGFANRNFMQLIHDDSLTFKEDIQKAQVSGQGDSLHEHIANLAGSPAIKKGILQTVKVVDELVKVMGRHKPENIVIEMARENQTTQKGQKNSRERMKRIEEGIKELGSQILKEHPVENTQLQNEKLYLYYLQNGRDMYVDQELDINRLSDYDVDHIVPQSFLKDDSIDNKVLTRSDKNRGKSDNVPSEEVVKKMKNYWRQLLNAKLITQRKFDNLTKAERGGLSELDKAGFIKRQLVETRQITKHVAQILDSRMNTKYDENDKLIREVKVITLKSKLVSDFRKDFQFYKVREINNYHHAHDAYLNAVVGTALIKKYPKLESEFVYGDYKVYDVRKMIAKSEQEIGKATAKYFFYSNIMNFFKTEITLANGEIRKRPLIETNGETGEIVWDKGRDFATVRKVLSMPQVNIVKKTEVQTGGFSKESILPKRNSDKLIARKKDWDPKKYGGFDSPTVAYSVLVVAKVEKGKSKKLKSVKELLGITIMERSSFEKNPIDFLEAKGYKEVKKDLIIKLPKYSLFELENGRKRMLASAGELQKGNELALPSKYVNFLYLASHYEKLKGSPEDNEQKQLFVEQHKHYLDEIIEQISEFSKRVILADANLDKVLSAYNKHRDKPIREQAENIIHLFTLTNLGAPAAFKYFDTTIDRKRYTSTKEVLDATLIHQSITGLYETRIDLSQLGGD

With “non-CRISPR structured RNA negative control” the binding signal was 55 % bound.
